This note sets out measurements from the supplement of paper PMC10567573.

B1: MFF (parent)
chain: MAEISRIQYEMEYTEGISQRMRVP
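Also: lentivirally expressed fusions sorted by FACS into six bins by GFP to DsRed ratio, PSI derived from sequencing read proportions per bin multiplied by bin number.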

The data set covers variants of B1. The experiment in a line: protein stability index of a GFP-peptide fusion (GPS, HEK-293T) (PSI 1-6); higher = more stable. As to conditions: c terminus: a fixed tail appended.
For the variant MAEISRIQYEMEYTEHISQRMRVP [G16H], the protein stability index came out at 2.02.

For the variant MAEISRIQYEMEYTEVISQRMRVP [G16V], the protein stability index stood at 2.07.

In the case of MAEISRIQYEMEYTECISQRMRVP [G16C], the protein stability index was 2.02.

On to MAEISRIQYEMEYTEIISQRMRVP [G16I], for which the protein stability index was 1.62.

On to MAEISRIQYEMEYTETISQRMRVP [G16T], for which the protein stability index was found to be 2.22.

On to MAEISRIQYEMEYTEKISQRMRVP [G16K], for which the protein stability index was 2.71.

In the case of MAEISRIQYEMEYTEEISQRMRVP [G16E], the protein stability index was determined as 3.12.

Turning to MAEISRIQYEMEYTEPISQRMRVP [G16P], the protein stability index was 3.13.

Take MAEISRIQYEMEYTEFISQRMRVP [G16F]: the protein stability index is 1.82.

With MAEISRIQYEMEYTEMISQRMRVP [G16M], the protein stability index came to 1.88.

As to MAEISRIQYEMEYTESISQRMRVP [G16S], the protein stability index is 2.2.

In the case of MAEISRIQYEMEYTERISQRMRVP [G16R], the protein stability index is 1.9.

In the case of MAEISRIQYEMEYTEDISQRMRVP [G16D], the protein stability index is 3.02.

With MAEISRIQYEMEYTEQISQRMRVP [G16Q], the protein stability index worked out at 2.29.

As for MAEISRIQYEMEYTENISQRMRVP [G16N], the protein stability index was determined as 2.72.

Turning to MAEISRIQYEMEYTELISQRMRVP [G16L], the protein stability index is 1.9.

Regarding MAEISRIQYEMEYTEAISQRMRVP [G16A], the protein stability index was 2.69.

Regarding MAEISRIQYEYEYTEGISQRMRVP [M11Y], the protein stability index was 2.67.

Turning to MAEISRIQYEMEYTWGISQRMRVP [E15W], the protein stability index worked out at 1.77.

On to MAEISRIQYEMEYTVGISQRMRVP [E15V], for which the protein stability index is 1.62.

As for MAEISRIQYEMEYTNGISQRMRVP [E15N], the protein stability index came out at 3.14.

On to MAEISRIQYEMEYTCGISQRMRVP [E15C], for which the protein stability index came to 1.46.

With MAEISRIQYEMEYTPGISQRMRVP [E15P], the protein stability index amounted to 1.96.

As to MAEISRIQYEMEYTAGISQRMRVP [E15A], the protein stability index was found to be 2.1.

Turning to MAEISRIQYEMEYTYGISQRMRVP [E15Y], the protein stability index was found to be 2.03.

Regarding MAEISRIQYEMEYTRGISQRMRVP [E15R], the protein stability index amounted to 2.45.

As for MAEISRIQYEMEYTHGISQRMRVP [E15H], the protein stability index was determined as 2.21.

Consider MAEISRIQYEMEYTLGISQRMRVP [E15L], for which the protein stability index is 1.66.

MAEISRIQYEMEYTDGISQRMRVP [E15D]: the protein stability index amounted to 2.64.

On to MAEISRIQYEMEYTTGISQRMRVP [E15T], for which the protein stability index is 2.56.

Take MAEISRIQYEMEYTFGISQRMRVP [E15F]: the protein stability index was found to be 2.17.

With MAEISRIQYEMEYTSGISQRMRVP [E15S], the protein stability index worked out at 1.94.

As to MAEISRIQYEMEYTKGISQRMRVP [E15K], the protein stability index is 2.43.

As for MAEISRIQYEMEYTQGISQRMRVP [E15Q], the protein stability index was 2.42.

For the variant MAEISRIQYEMEYTIGISQRMRVP [E15I], the protein stability index is 2.11.

Take MAEISRIQYEMEYTMGISQRMRVP [E15M]: the protein stability index came to 1.75.

In the case of MAEISRIQYEMEYTGGISQRMRVP [E15G], the protein stability index was 2.15.

In the case of MAEISRIQYEMEYAEGISQRMRVP [T14A], the protein stability index was determined as 2.68.

Consider MAEISRIQYEMEYVEGISQRMRVP [T14V], for which the protein stability index is 2.56.

MAEISRIQYEMEYFEGISQRMRVP [T14F]: the protein stability index turned out to be 1.65.

As for MAEISRIQYEMEYGEGISQRMRVP [T14G], the protein stability index is 2.75.

With MAEISRIQYEMEYCEGISQRMRVP [T14C], the protein stability index was 2.24.

Consider MAEISRIQYEMEYREGISQRMRVP [T14R], for which the protein stability index turned out to be 2.35.

As to MAEISRIQYEMEYWEGISQRMRVP [T14W], the protein stability index worked out at 1.97.

Turning to MAEISRIQYEMEYIEGISQRMRVP [T14I], the protein stability index was 1.86.

As to MAEISRIQYEMEYMEGISQRMRVP [T14M], the protein stability index came out at 2.2.

Take MAEISRIQYEMEYLEGISQRMRVP [T14L]: the protein stability index was 2.07.

Consider MAEISRIQYEMEYQEGISQRMRVP [T14Q], for which the protein stability index came out at 3.08.

As for MAEISRIQYEMEYDEGISQRMRVP [T14D], the protein stability index was 4.16.

On to MAEISRIQYEMEYPEGISQRMRVP [T14P], for which the protein stability index came out at 2.55.

Regarding MAEISRIQYEMEYKEGISQRMRVP [T14K], the protein stability index worked out at 3.28.

Take MAEISRIQYEMEYEEGISQRMRVP [T14E]: the protein stability index was found to be 3.22.

Regarding MAEISRIQYEMEYSEGISQRMRVP [T14S], the protein stability index turned out to be 2.71.

Consider MAEISRIQYEMEYYEGISQRMRVP [T14Y], for which the protein stability index came out at 2.04.

With MAEISRIQYEMEYNEGISQRMRVP [T14N], the protein stability index was determined as 3.15.

For the variant MAEISRIQYEMEYHEGISQRMRVP [T14H], the protein stability index came out at 2.5.

For the variant MAEISRIQYEMELTEGISQRMRVP [Y13L], the protein stability index was found to be 2.62.

With MAEISRIQYEMEWTEGISQRMRVP [Y13W], the protein stability index was found to be 2.77.

In the case of MAEISRIQYEMEKTEGISQRMRVP [Y13K], the protein stability index was determined as 2.96.

In the case of MAEISRIQYEMEDTEGISQRMRVP [Y13D], the protein stability index was determined as 3.95.

As to MAEISRIQYEMESTEGISQRMRVP [Y13S], the protein stability index was determined as 3.79.

On to MAEISRIQYEMEQTEGISQRMRVP [Y13Q], for which the protein stability index is 3.35.

Regarding MAEISRIQYEMEHTEGISQRMRVP [Y13H], the protein stability index worked out at 3.26.

MAEISRIQYEMEGTEGISQRMRVP [Y13G]: the protein stability index turned out to be 3.66.

With MAEISRIQYEMENTEGISQRMRVP [Y13N], the protein stability index came out at 3.45.

As for MAEISRIQYEMEFTEGISQRMRVP [Y13F], the protein stability index was 2.41.

On to MAEISRIQYEMEMTEGISQRMRVP [Y13M], for which the protein stability index turned out to be 2.67.

In the case of MAEISRIQYEMEITEGISQRMRVP [Y13I], the protein stability index turned out to be 2.33.

Turning to MAEISRIQYEMETTEGISQRMRVP [Y13T], the protein stability index is 3.46.

On to MAEISRIQYEMEETEGISQRMRVP [Y13E], for which the protein stability index came out at 3.32.

Consider MAEISRIQYEMEATEGISQRMRVP [Y13A], for which the protein stability index was 2.73.

As to MAEISRIQYEMEPTEGISQRMRVP [Y13P], the protein stability index turned out to be 3.69.

For MAEISRIQYEMECTEGISQRMRVP [Y13C], the protein stability index is 3.22.

Regarding MAEISRIQYEMERTEGISQRMRVP [Y13R], the protein stability index came out at 2.71.

As for MAEISRIQYEMEVTEGISQRMRVP [Y13V], the protein stability index is 3.12.

Regarding MAEISRIQYEMIYTEGISQRMRVP [E12I], the protein stability index was found to be 1.28.

For the variant MAEISRIQYEMHYTEGISQRMRVP [E12H], the protein stability index was 2.26.

Take MAEISRIQYEMSYTEGISQRMRVP [E12S]: the protein stability index came to 2.42.

For MAEISRIQYEMYYTEGISQRMRVP [E12Y], the protein stability index stood at 1.76.

MAEISRIQYEMQYTEGISQRMRVP [E12Q]: the protein stability index came to 1.87.

Consider MAEISRIQYEMWYTEGISQRMRVP [E12W], for which the protein stability index is 2.12.

With MAEISRIQYEMCYTEGISQRMRVP [E12C], the protein stability index is 1.98.

In the case of MAEISRIQYEMAYTEGISQRMRVP [E12A], the protein stability index amounted to 1.82.

With MAEISRIQYEMLYTEGISQRMRVP [E12L], the protein stability index is 1.74.

Turning to MAEISRIQYEMPYTEGISQRMRVP [E12P], the protein stability index is 2.81.

Regarding MAEISRIQYEMVYTEGISQRMRVP [E12V], the protein stability index worked out at 1.76.

Turning to MAEISRIQYEMTYTEGISQRMRVP [E12T], the protein stability index is 1.86.

Take MAEISRIQYEMFYTEGISQRMRVP [E12F]: the protein stability index was found to be 1.34.

MAEISRIQYEMGYTEGISQRMRVP [E12G]: the protein stability index turned out to be 2.26.

On to MAEISRIQYEMNYTEGISQRMRVP [E12N], for which the protein stability index turned out to be 2.4.

Turning to MAEISRIQYEMRYTEGISQRMRVP [E12R], the protein stability index amounted to 2.31.

MAEISRIQYEMDYTEGISQRMRVP [E12D]: the protein stability index stood at 2.53.

As to MAEISRIQYEMMYTEGISQRMRVP [E12M], the protein stability index is 1.84.

On to MAEISRIQYEMKYTEGISQRMRVP [E12K], for which the protein stability index amounted to 2.64.
